Biological target: the molecule itself
Experiment: SEC-MALS; SEC-MALLS; Superdex 200 Increase 10/300 GL; 100 µl injected at 2 mg/ml; 20 mM HEPES, 200 mM NaCl pH 7.4; room temperature (20 ± 2 °C)

B1: Phocaeicola vulgatus sialic acid 9-O-acetylesterase (PvSAE), His6-tagged (enzyme)
chain: ERKYSTFYEQRATLFEELPVTSKDIIFLGNSITNGCEWAELFQNKNVKNRGISGDICMGVYDRLDPIVKGKPAKIFLLIGINDVSRGTSADKIISEISMIVRKIKQESPKTKLYLQSVLPVNDCYGMFNGHTSRWQVVKQINDLLEPLAVKEGVAYIDLYSHFVEKETGKMNPVYTNDGLHLLGKGYLLWRDIVKPYVDQK
notes: Sialic acid 9-O-acetylesterase PvSAE (BVU4141) of Phocaeicola vulgatus, GenBank ABR41743.1, without its signal peptide; the text says that the signal peptide is predicted to be cut between residues 19 and 20; Homodimer by SEC-MALLS and in both crystal forms; also called His6-PvSAE; P. vulgatus 9-O-acetylsialic acid esterase
stoichiometry N: 2

Source: article PMC9063846 (Acta Crystallographica. Section D, Structural Biology, 2022)
